This note sets out measurements from patent US20110257373A1 (published 2011).

Residue numbers refer to the chain shown, from its start.

The labels stand for the following.
T1: human DC-SIGN (human, UniProt Q9NNX6 62-404, limits assumed)
T1 construct: Coated on ELISA wells; also called CD209; DC-SIGN protein
T1 sequence: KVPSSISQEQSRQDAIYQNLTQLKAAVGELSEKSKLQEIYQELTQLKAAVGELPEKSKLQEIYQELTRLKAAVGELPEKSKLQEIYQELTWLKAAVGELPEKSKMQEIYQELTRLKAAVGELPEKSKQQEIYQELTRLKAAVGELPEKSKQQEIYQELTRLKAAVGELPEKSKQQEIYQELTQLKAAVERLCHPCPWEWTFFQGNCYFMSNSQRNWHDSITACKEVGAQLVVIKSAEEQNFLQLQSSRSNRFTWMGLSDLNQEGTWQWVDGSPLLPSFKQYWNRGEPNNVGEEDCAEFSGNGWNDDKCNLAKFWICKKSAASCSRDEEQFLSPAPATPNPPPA

T2: DC-SIGNR (Homo sapiens (Human), UniProt Q9H2X3 78-399, limits assumed)
T2 construct: Bought (R&D Cat nr 162-D2)
T2 sequence: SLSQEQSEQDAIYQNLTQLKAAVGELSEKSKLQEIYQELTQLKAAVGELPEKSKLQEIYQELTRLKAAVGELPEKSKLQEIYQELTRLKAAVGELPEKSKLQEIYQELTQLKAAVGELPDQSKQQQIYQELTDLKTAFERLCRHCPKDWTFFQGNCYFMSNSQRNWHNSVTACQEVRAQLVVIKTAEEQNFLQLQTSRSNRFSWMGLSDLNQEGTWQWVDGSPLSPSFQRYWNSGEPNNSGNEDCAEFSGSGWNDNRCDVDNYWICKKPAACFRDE

B1: 1-13 (other)
VK dAb: DIQMTQSPSSLSASVGDRVTITCRASQGIWQELKWYQQKPGKAPRLLIYRGSSLQSGVPSRFSGSGSGTDFTLTISSLQPEDFATYYCQQSFYPPYTFGQGTKVEIKR
notes: human VK domain antibody, tested as phage particles; also called LIP1-13; LIP1-13 phage
B2: 1-23 (other)
VK dAb: B1 VK dAb with G28D, Q31R, K34R, R45K, G51A, S53N, F62L, S91T
notes: human VK domain antibody, tested as phage particles; also called LIP1-23; LIP1-23 phage
B3: 1-26 (other)
VH dAb: EVQLLESGGGLVQPGGSLRLSCAASGFTFSHYTMSWVRQAPGKGLEWVSSISSTGFKTYYADSVKGRFTISRDNSKNTLYLQMNSLRAEDTAVYYCAKWNPHRSTYFDYWGQGTLVTVSS
notes: human VH domain antibody, tested as phage particles; also called LIP1-26; LIP1-26 phage
B4: DC-SIGN peptide (9xHIS tag, linker and the C-terminal end of DC-SIGN) (peptide)
peptide: HHHHHHHHHSGSGKKSAASCSRDEEQFLSPAPATPNPPPA
notes: also called HIS tagged DC-SIGN peptide
B5: LIP1-28 (other)
VH: EVQLLESGGGLVQPGGSLRLSCAASGFTFVATPMHWVRQAPGKGLEWVSAISGSGGSTYYADSVKGRFTISRDNSKNTLYLQMNSLRAEDTAVYYCAKGWDPSLERFDYWGQGTLVTVSS
B6: LIP1-29 (other)
VH: EVQLLESGGGLVQPGGSLRLSCAASGFTFDRRAMGWVRQAPGKGLEWVSSIESDGTRTYYADSVKGRFTISRDNSKNTLYLQMNSLRAEDTAVYYCAKHPGSSYVFDYWGQGTLVTVSS
notes: all other claims print 34
B7: LIP1-27 (other)
VH: EVQLLESGGGLVQPGGSLRLSCAASGFTFEQTDMHWARQAPGKGPEWVSSISPLGAFTYYADSVKGRFTISRDNSKNTLYLQMNSLRAEDTAVYYCAKSPLVRNNGQFDYWGQGTLVTVSS
B8: 1-12 (other)
VK dAb: DIQMTQSPSSLSASVGDRVTITCRASRPIGTNLYWYQQKPGKAPKLLIVGGSFLQSGVPSRFSGSGSGTDFTLTISSLQPEDFATYYCGQRARYPGTFGQGTKVEIKR
notes: human VK domain antibody, tested as phage particles; also called LIP1-12; LIP1-12 phage
B9: LIP1-30 (other)
VH: EVQLLESGGGLVQPGGSLRLSCAASGFTFSGYSMAWVRQAPGKGLEWVSQIGPLGVKTYYADSVKGRFTISRDNSKNTLYLQMNSLRAEDTAVYYCAKLTSDAHDFDYWGQGTLVTVSS
notes: all other claims print 29
B10: 1-15 (other)
VK dAb: DIQMTQSPSSLSASVGDRVTITCRASRAIGTYLAWYQQKPGKAPKLLILWGSVLQSGVPSRFSGSGSGTDFTLTISSLQPEDFATYYCAQLAQRPSTFGQGTKVEIKR
notes: human VK domain antibody, tested as phage particles; also called LIP1-15; LIP1-15 phage
B11: LIP1-33 (other)
VH: EVQLLESGGGLVQPGGSLRLSCAASGFTFPSGTMGWVRQAPGKGLEWVSYIDPSGFMTYYADSVKGRFTISRDNSKNTLYLQMNSLRAEDTAVYYCAKSIVPRSGTFDYWGQGTLVTVSS
notes: Human VH domain antibody (dAb); also called LIP1-33 phage
B12: LIP1-25 (other)
VH: EVQLLESGGGLVQPGGSLRLSCAASGFTFPDADMVWVRQAPGKGLEWVSSISDHGFNTYYADSVKGRFTISRDNSKNTLYLQMNSLRAEDTAVYYCAKSPLATFDYWGQGTLVTVSS

Experiment [1] deals with T1, human DC-SIGN. The experiment can be described thus: phage ELISA: DC-SIGN coated on the wells, serial dilutions of phage particles, detection with anti-M13 antibody-HRP and TMB, OD 450. Here is the method: (§1) Phage particles from individual LIP1 clones were prepared, and serial dilutions of phage particles were tested in ELISA. The ELISA wells were coated overnight at 4° C. with DC SIGN (1-10 μg/ml in PBS or 0.1 M NaHCO₃ buffer, pH 9.6). After blocking the wells with PBS containing 2% skimmed-milk powder (PBSM), phage was incubated in PBSM for 1 hr. After washing with PBS, bound phage were detected using a conjugate of horseradish peroxidase with an anti-M13 monoclonal antibody (Amersham) using 3,3′,5,5′-tetramethylbenzidine as substrate.
(§2) For phage ELISA, the ELISA wells were coated overnight at 4° C. with DC SIGN or DC SIGNR (R&D Cat nr 162-D2) at (1-10 μg/ml in PBS or 0.1 M NaHCO₃ buffer, pH 9.6). After blocking the wells with PBS containing 2% skimmed-milk powder (PBSM), phage was incubated in PBSM for 1 hr. After washing with PBS, bound phage were detected using a conjugate of horseradish peroxidase with an anti-M13 monoclonal antibody (Amersham) using 3,3′,5,5′-tetramethylbenzidine as substrate.
In general terms: In an ELISA, binding on a coated surface is turned into a signal by an enzyme label.

The experiment “LIP1-33” concerns the target B11. Put plainly: competition phage ELISA; HIS tagged peptide in solution as competitor (data not shown).
The target in experiment [2] is T1, human DC-SIGN. Put plainly: phage ELISA.
For another experiment, the target named is T2, DC-SIGNR. The experiment can be described thus: phage ELISA: DC-SIGNR coated on the wells, serial dilutions of LIP1-33 phage, detection with anti-M13 antibody-HRP and TMB, OD450. Here is the method: as §1, with “LIP1-33” for “individual LIP1 clones”, “DC SIGNR, neutravidin, DC” for “DC”, “SIGN or DC SIGN peptide” for “SIGN”, “substrate. HEL4 and VKdummy are non-binding negative controls.” for “substrate.”
as §2

Experiment [3] deals with B4. The experiment can be described thus: phage ELISA: DC-SIGN peptide coated on the wells, serial dilutions of LIP1-33 phage, detection with anti-M13 antibody-HRP and TMB, OD450. On the procedure: as §1, with “LIP1-33” for “individual LIP1 clones”, “DC SIGNR, neutravidin, DC” for “DC”, “SIGN or DC SIGN peptide” for “SIGN”, “substrate. HEL4 and VKdummy are non-binding negative controls.” for “substrate.”

The target in experiment [4] is T1, human DC-SIGN. Put plainly: phage ELISA: DC-SIGN coated on the wells, serial dilutions of LIP1-33 phage, detection with anti-M13 antibody-HRP and TMB, OD450. Here is the method: as §1, with “LIP1-33” for “individual LIP1 clones”, “DC SIGNR, neutravidin, DC” for “DC”, “SIGN or DC SIGN peptide” for “SIGN”, “substrate. HEL4 and VKdummy are non-binding negative controls.” for “substrate.”
as §2

Turning to B1, the binding result with human DC-SIGN [1] is reported as “binds”.
For B2, in the experiment with human DC-SIGN [1], the binding result is recorded as “binds”.
On to B3, for which, in the experiment with human DC-SIGN [1], the binding result is “binds”.
In the case of B4, in the experiment with LIP1-33, the binding result is “binds”.
Take B5: in the experiment with human DC-SIGN [2], the binding result was “binds”.
As for B6, the binding result with human DC-SIGN [1] is listed as “binds”.
As for B7, the binding result in the experiment with human DC-SIGN [2] is “binds”.
B8: the binding result in the experiment with human DC-SIGN [1] is “binds”.
B9: in the experiment with human DC-SIGN [2], the binding result is reported as “binds”.
As for B10, in the experiment with human DC-SIGN [1], the binding result is reported as “binds”.
As for B11, the binding result was “no binding” with DC-SIGNR, “binds” in experiment [3] and “binds” in the experiment with human DC-SIGN [4].
With B12, in the experiment with human DC-SIGN [2], the binding result was “binds”.
